The values below come from patent US20100298542A1 (Chugai, published 2010).

Assay [1] addresses T1, soluble human FcRn (complex of FcRn extracellular domain and β2-microglobulin) (human, UniProt P55899 24-290; P16213 21-119).
T1 construct: The stated ranges are those of the expressed constructs and contain the signal regions; Expressed in HEK293H cells, purified on IgG Sepharose and HiTrap Q; also called hFcRn
Briefly: SPR (Biacore 3000), antibody captured on Protein L or anti-human kappa antibody, human FcRn as analyte, pH 6.0, steady state affinity. As for the experimental part: (§1) The binding to human FcRn was assessed using Biacore 3000. […] Human FcRn was then injected and the binding of the human FcRn to antibody was assessed. The affinity was computed using BIAevaluation Software. The obtained sensorgram was used to calculate the amount of hFcRn bound to the antibody immediately before the end of human FcRn injection. The affinity of the antibody for human FcRn was calculated by fitting with the steady state affinity method.
A general note: Surface plasmon resonance follows binding to a sensor surface in real time, without labels.

Assay [2] has as its target T1, soluble human FcRn (complex of FcRn …). Briefly: SPR (Biacore 3000), human FcRn, pH 6.0, steady state affinity. The procedure: as §1
For assay [3] the target is unchanged. Briefly: SPR (Biacore 3000), method of Example 6: captured antibody, human FcRn as analyte, pH 6.0, steady state affinity. The procedure: as §1

Positions count from the first letter of the chain named.

T1 sequence (P55899 24-290 limits assumed, chain 1 of 2): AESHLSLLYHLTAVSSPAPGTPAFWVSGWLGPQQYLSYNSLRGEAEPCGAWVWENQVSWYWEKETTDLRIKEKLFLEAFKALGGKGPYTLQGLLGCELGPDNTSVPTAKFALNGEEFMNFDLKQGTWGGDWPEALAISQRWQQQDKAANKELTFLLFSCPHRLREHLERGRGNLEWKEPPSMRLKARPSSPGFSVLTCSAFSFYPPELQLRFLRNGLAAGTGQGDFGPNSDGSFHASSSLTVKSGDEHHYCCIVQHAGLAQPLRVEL
T1 sequence (P16213 21-119 limits assumed, chain 2 of 2): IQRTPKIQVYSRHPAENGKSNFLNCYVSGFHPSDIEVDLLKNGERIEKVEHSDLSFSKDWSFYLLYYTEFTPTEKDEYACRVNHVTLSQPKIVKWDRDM

B1: WT-M14ΔGK (humanized PM-1 variable region, M14ΔGK constant region) (antibody)
heavy: QVQLQESGPGLVRPSQTLSLTCTVSGYSITSDHAWSWVRQPPGRGLEWIGYISYSGITTYNPSLKSRVTMLRDTSKNQFSLRLSSVTAADTAVYYCARSLARTTAMDYWGQGSLVTVSSASTKGPSVFPLAPSSKSTSGGTAALGCLVKDYFPEPVTVSWNSGALTSGVHTFPAVLQSSGLYSLSSVVTVPSSNFGTQTYTCNVDHKPSNTKVDKTVERKSCVECPPCPAPPVAGPSVFLFPPKPKDTLMISRTPEVTCVVVDVSHEDPEVQFNWYVDGVEVHNAKTKPREEQFNSTFRVVSVLTVVHQDWLNGKEYKCKVSNKGLPSSIEKTISKAKGQPREPQVYTLPPSREEMTKNQVSLTCLVKGFYPSDIAVEWESNGQPENNYKTTPPVLDSDGSFFLYSKLTVDKSRWQQGNVFSCSVMHEALHNHYTQKSLSLSP
light: DIQMTQSPSSLSASVGDSVTITCQASQDISSYLNWYQQKPGKAPELLIYYGSELHSGVPSRFSGSGSGTDFTFTISSLEAEDAATYYCQQGNSLPYTFGQGTKVEIE
notes: copies: 2 + 2
As to B1, in assay [1], the Kd (as a rule, the constant that tells how readily two partners part at equilibrium) came out at 1850 nM.

B2: WT-M44 (humanized PM-1 antibody, IgG1 constant region with alanine at position 434, EU numbering) (antibody)
heavy: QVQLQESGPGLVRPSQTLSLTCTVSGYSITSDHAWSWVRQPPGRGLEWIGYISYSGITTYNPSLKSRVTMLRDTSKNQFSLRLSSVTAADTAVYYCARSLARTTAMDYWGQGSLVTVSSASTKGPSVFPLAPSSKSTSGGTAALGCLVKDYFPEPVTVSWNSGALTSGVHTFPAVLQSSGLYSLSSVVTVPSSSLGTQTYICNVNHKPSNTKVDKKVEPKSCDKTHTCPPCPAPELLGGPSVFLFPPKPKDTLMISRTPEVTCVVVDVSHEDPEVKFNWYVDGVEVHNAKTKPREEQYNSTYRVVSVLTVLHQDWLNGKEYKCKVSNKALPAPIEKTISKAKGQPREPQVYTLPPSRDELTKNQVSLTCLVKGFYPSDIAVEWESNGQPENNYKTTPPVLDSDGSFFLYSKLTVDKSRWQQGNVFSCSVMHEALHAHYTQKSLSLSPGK
light: B1 light
notes: copies: 2 + 2
On to B2, for which, in assay [2], the “binding as a multiple of that of WT-IgG1” value was ~2.7 times that of WT-IgG1. Moreover, the affinity in assay [1], expressed as Kd, was 590 nM.

B3: WT-M58 (humanized PM-1 variable region, M58 constant region) (antibody)
heavy: B1 heavy with H266Q, S328A, S329P, A337T, R353Q, V395M, Q417E
light: B1 light
notes: copies: 2 + 2
Turning to B3, in assay [2], the “binding as a multiple of that of WT-IgG1” value is ~1.4 times that of WT-IgG1. For the same molecule, the Kd turned out to be 1030 nM in assay [3] and 1170 nM in assay [1].

B4: WT-M73 (humanized PM-1 variable region, M73 constant region) (antibody)
heavy: B1 heavy with H266Q, S328A, S329P, A337T, R353Q, V395M, Q417E, N432A
light: B1 light
notes: copies: 2 + 2
In the case of B4, the “binding as a multiple of that of WT-IgG1” value in assay [2] was ~3.8 times that of WT-IgG1. Further, the Kd in assay [1] stood at 420 nM.
